According to PMC6555819, “Comprehensive study of nuclear receptor DNA binding provides a revised framework for understanding receptor specificity”:

Molecular target: FXR:RXRa (Homo sapiens, UniProt Q96RI1;P19793 full;full)
Assay: no ligand; PBM; 270 nM : 90 nM RXRa; PBS pH 7.4, 2% milk, 0.02% Triton X-100, 1 mM DTT, BSA, 0.4 mg/ml salmon testes DNA
Conditions: tags: His kept;His cleaved; copies: 1;1; label: surface-attached array probe
Summary of the method: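 Ligand-free nuclear receptor dimers were applied to custom Agilent 4×180K protein-binding microarrays whose double-stranded probes carried direct-repeat seeds, single-nucleotide variants, half-site ablations and random human genomic background sequences in 34-nt variable regions. Incubation lasted 1 h. Binding z-scores were computed against the random background probes from regression-normalized fluorescence.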

FXR:RXRa, sequence (Q96RI1 whole entry, chain 1 of 2): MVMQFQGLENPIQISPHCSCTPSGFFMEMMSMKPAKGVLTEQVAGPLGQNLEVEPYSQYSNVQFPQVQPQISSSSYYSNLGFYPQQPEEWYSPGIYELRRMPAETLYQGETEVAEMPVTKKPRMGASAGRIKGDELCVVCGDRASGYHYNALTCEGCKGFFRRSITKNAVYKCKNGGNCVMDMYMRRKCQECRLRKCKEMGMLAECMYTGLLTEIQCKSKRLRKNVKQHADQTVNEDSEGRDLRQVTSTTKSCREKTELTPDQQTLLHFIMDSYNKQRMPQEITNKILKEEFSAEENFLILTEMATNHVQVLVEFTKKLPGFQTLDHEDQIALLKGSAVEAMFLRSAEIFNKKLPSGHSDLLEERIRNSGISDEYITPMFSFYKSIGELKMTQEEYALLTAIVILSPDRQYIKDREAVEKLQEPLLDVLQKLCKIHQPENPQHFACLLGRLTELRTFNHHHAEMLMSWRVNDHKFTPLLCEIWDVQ
FXR:RXRa, sequence (P19793 whole entry, chain 2 of 2): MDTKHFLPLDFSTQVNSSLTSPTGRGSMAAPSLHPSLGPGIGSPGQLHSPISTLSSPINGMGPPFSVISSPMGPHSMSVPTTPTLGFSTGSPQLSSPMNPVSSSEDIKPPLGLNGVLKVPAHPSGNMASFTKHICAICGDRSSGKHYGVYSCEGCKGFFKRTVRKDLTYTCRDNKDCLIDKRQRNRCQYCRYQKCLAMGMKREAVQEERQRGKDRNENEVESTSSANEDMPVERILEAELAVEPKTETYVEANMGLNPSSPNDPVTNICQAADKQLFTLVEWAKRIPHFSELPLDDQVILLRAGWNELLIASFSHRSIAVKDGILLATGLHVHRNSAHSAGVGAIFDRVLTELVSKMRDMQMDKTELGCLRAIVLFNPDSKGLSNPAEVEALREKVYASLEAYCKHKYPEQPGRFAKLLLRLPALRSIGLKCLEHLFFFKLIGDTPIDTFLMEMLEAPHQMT

Binder | binding signal
NRC3_wobSeed93_DR3_T12G_o1 (dsDNA) DNA 1: GCAGTCAAAGTGCATCTAGGTAACGTAAGATATGCTGCGATTGACAGCGTAGAATGAAGG DNA 2: CCTTCATTCTACGCTGTCAATCGCAGCATATCTTACGTTACCTAGATGCACTTTGACTGC | 0.12 PBM z-score against 500 random probes
NRC3_wobSeed122_DR5_G21T_o1 (dsDNA) DNA 1: GCGCTAGTTGGTCAGTAAAATGTCACACACCGGTCGGCGATTGACAGCGTAGAATGAAGG DNA 2: CCTTCATTCTACGCTGTCAATCGCCGACCGGTGTGTGACATTTTACTGACCAACTAGCGC | 0.1 PBM z-score against 500 random probes
NRC3_wobSeed21_DR0_T11A_o1 (dsDNA) DNA 1: GCCGTCAAAGATCAAGGTAACGTAACAGAAAGCAGCGCGATTGACAGCGTAGAATGAAGG DNA 2: CCTTCATTCTACGCTGTCAATCGCGCTGCTTTCTGTTACGTTACCTTGATCTTTGACGGC | 0.1 PBM z-score against 500 random probes
NRC3_wobSeed66_DR2_C13A_o1 (dsDNA) DNA 1: GCAATACAGGGTAACTAGGCCAGAGTAGGTACGAATGCGATTGACAGCGTAGAATGAAGG DNA 2: CCTTCATTCTACGCTGTCAATCGCATTCGTACCTACTCTGGCCTAGTTACCCTGTATTGC | -0.01 PBM z-score against 500 random probes
NRC3_wobSeed136_DR5_T12G_o1 (dsDNA) DNA 1: GCTAGCCTAGGGCATTCAGGGGCCAGTATAGAAAGCGCGATTGACAGCGTAGAATGAAGG DNA 2: CCTTCATTCTACGCTGTCAATCGCGCTTTCTATACTGGCCCCTGAATGCCCTAGGCTAGC | -0.08 PBM z-score against 500 random probes
NRC3_wobSeed88_DR3_G10A_o1 (dsDNA) DNA 1: GCTAGCCTAAGTCATGCGGGCCAGTATAGTGTCGGCGCGATTGACAGCGTAGAATGAAGG DNA 2: CCTTCATTCTACGCTGTCAATCGCGCCGACACTATACTGGCCCGCATGACTTAGGCTAGC | -0.37 PBM z-score against 500 random probes
NRC3_wobSeed59_DR2_o1 (dsDNA) DNA 1: GCTCTATTAGTTGATTAGGGCAACCGAAACAGCGGAGCGATTGACAGCGTAGAATGAAGG DNA 2: CCTTCATTCTACGCTGTCAATCGCTCCGCTGTTTCGGTTGCCCTAATCAACTAATAGAGC | 0.48 PBM z-score against 500 random probes
NRC3_wobSeed67_DR2_o1 (dsDNA) DNA 1: GCCCAGACAGGTGAGAAGGTAACTCAGCCTCGATTAGCGATTGACAGCGTAGAATGAAGG DNA 2: CCTTCATTCTACGCTGTCAATCGCTAATCGAGGCTGAGTTACCTTCTCACCTGTCTGGGC | 0.47 PBM z-score against 500 random probes
NRC3_random_hg19_245_o1 (dsDNA) DNA 1: GCATGTTCCTTTACCCTAGCTGCAGTGGGTATCCACGCGATTGACAGCGTAGAATGAAGG DNA 2: CCTTCATTCTACGCTGTCAATCGCGTGGATACCCACTGCAGCTAGGGTAAAGGAACATGC | 0.41 PBM z-score against 500 random probes
NRC3_random_hg19_361_o1 (dsDNA) DNA 1: GCAAACTGGGAGGTGGAGGTTGTAGTAAGCCAAGATGCGATTGACAGCGTAGAATGAAGG DNA 2: CCTTCATTCTACGCTGTCAATCGCATCTTGGCTTACTACAACCTCCACCTCCCAGTTTGC | 0.3 PBM z-score against 500 random probes
NRC3_random_hg19_475_o1 (dsDNA) DNA 1: GCATGAAAGTTTAGTATGTGTAGGGTAGTGCTTCATGCGATTGACAGCGTAGAATGAAGG DNA 2: CCTTCATTCTACGCTGTCAATCGCATGAAGCACTACCCTACACATACTAAACTTTCATGC | 0.26 PBM z-score against 500 random probes
NRC3_random_hg19_15_o1 (dsDNA) DNA 1: GCGTTGGTCAGCTGGTCTCGAACTCCTGACCTCAAGGCGATTGACAGCGTAGAATGAAGG DNA 2: CCTTCATTCTACGCTGTCAATCGCCTTGAGGTCAGGAGTTCGAGACCAGCTGACCAACGC | 0.16 PBM z-score against 500 random probes
NRC3_random_hg19_395_o1 (dsDNA) DNA 1: GCGTACAATTGCCCTCTTAGCAGAGTTCTGGTGCATGCGATTGACAGCGTAGAATGAAGG DNA 2: CCTTCATTCTACGCTGTCAATCGCATGCACCAGAACTCTGCTAAGAGGGCAATTGTACGC | 0.09 PBM z-score against 500 random probes
NRC3_random_hg19_137_o1 (dsDNA) DNA 1: GCCTCACGTGTTTCCTGGTAGAAATGCAGAGTACAAGCGATTGACAGCGTAGAATGAAGG DNA 2: CCTTCATTCTACGCTGTCAATCGCTTGTACTCTGCATTTCTACCAGGAAACACGTGAGGC | 0.08 PBM z-score against 500 random probes
NRC3_random_hg19_295_o1 (dsDNA) DNA 1: GCGAGGTTGCAGAGATGTTCTCACTAAACATTCGTTGCGATTGACAGCGTAGAATGAAGG DNA 2: CCTTCATTCTACGCTGTCAATCGCAACGAATGTTTAGTGAGAACATCTCTGCAACCTCGC | 0.03 PBM z-score against 500 random probes
NRC3_random_hg19_210_o1 (dsDNA) DNA 1: GCATCATTTGCTCTGGGTGAAGCCAGCTACCATGTTGCGATTGACAGCGTAGAATGAAGG DNA 2: CCTTCATTCTACGCTGTCAATCGCAACATGGTAGCTGGCTTCACCCAGAGCAAATGATGC | -0.02 PBM z-score against 500 random probes
NRC3_random_hg19_148_o1 (dsDNA) DNA 1: GCTGTGTCACCATGAGCAATCCAACCAGGCATCCCAGCGATTGACAGCGTAGAATGAAGG DNA 2: CCTTCATTCTACGCTGTCAATCGCTGGGATGCCTGGTTGGATTGCTCATGGTGACACAGC | -0.04 PBM z-score against 500 random probes

Binder | binding signal
NRC3_random_hg19_316_o1 (dsDNA) DNA 1: GCCAAAGACAGCTTTGCAAGGCCACTTCTGTTTGCTGCGATTGACAGCGTAGAATGAAGG DNA 2: CCTTCATTCTACGCTGTCAATCGCAGCAAACAGAAGTGGCCTTGCAAAGCTGTCTTTGGC | -0.15 PBM z-score against 500 random probes
NRC3_random_hg19_488_o1 (dsDNA) DNA 1: GCGGTTGCAGTGAGCTGAGATCACACCACTGCACTCGCGATTGACAGCGTAGAATGAAGG DNA 2: CCTTCATTCTACGCTGTCAATCGCGAGTGCAGTGGTGTGATCTCAGCTCACTGCAACCGC | -0.28 PBM z-score against 500 random probes
NRC3_random_hg19_345_o1 (dsDNA) DNA 1: GCGCAGTGGGTGATGATGTCACTGGTTAACGTGGCTGCGATTGACAGCGTAGAATGAAGG DNA 2: CCTTCATTCTACGCTGTCAATCGCAGCCACGTTAACCAGTGACATCATCACCCACTGCGC | -0.31 PBM z-score against 500 random probes
NRC3_random_hg19_232_o1 (dsDNA) DNA 1: GCTTAGCAGGAACTGAGAAGTCACACTCAAGAGTTAGCGATTGACAGCGTAGAATGAAGG DNA 2: CCTTCATTCTACGCTGTCAATCGCTAACTCTTGAGTGTGACTTCTCAGTTCCTGCTAAGC | -0.34 PBM z-score against 500 random probes
NRC3_random_hg19_296_o1 (dsDNA) DNA 1: GCGGCCTATGGCTCCAGAATGCTAATGCTACTCTGCGCGATTGACAGCGTAGAATGAAGG DNA 2: CCTTCATTCTACGCTGTCAATCGCGCAGAGTAGCATTAGCATTCTGGAGCCATAGGCCGC | -0.48 PBM z-score against 500 random probes
NRC3_random_hg19_467_o1 (dsDNA) DNA 1: GCGAAACTGCTGCAAAGGCCTACTGAAGCCTGACTGGCGATTGACAGCGTAGAATGAAGG DNA 2: CCTTCATTCTACGCTGTCAATCGCCAGTCAGGCTTCAGTAGGCCTTTGCAGCAGTTTCGC | -0.59 PBM z-score against 500 random probes
NRC3_random_hg19_377_o1 (dsDNA) DNA 1: GCTTTAGAAGAAAGGTTTCATTACTGAGAGCAGCCAGCGATTGACAGCGTAGAATGAAGG DNA 2: CCTTCATTCTACGCTGTCAATCGCTGGCTGCTCTCAGTAATGAAACCTTTCTTCTAAAGC | -0.61 PBM z-score against 500 random probes
NRC3_random_hg19_36_o1 (dsDNA) DNA 1: GCCAGGCAGTTTGCTTGAGCTCAGGAGTTCAAGACTGCGATTGACAGCGTAGAATGAAGG DNA 2: CCTTCATTCTACGCTGTCAATCGCAGTCTTGAACTCCTGAGCTCAAGCAAACTGCCTGGC | -0.62 PBM z-score against 500 random probes
NRC3_random_hg19_87_o1 (dsDNA) DNA 1: GCGACTGCTTGCATCAGTCAAGGTTTGGGCAGTGAGGCGATTGACAGCGTAGAATGAAGG DNA 2: CCTTCATTCTACGCTGTCAATCGCCTCACTGCCCAAACCTTGACTGATGCAAGCAGTCGC | -0.74 PBM z-score against 500 random probes
NRC3_random_hg19_144_o1 (dsDNA) DNA 1: GCCAGTGCTGGCGTCGTAGTGCTTGCCATAACAGAGGCGATTGACAGCGTAGAATGAAGG DNA 2: CCTTCATTCTACGCTGTCAATCGCCTCTGTTATGGCAAGCACTACGACGCCAGCACTGGC | -0.87 PBM z-score against 500 random probes
NRC3_wobSeed109_DR4_A8G_o1 (dsDNA) DNA 1: GCCGTCCGAGGTCATAGGAGGTCAGTGAAGACAGATGCGATTGACAGCGTAGAATGAAGG DNA 2: CCTTCATTCTACGCTGTCAATCGCATCTGTCTTCACTGACCTCCTATGACCTCGGACGGC | 8.19 PBM z-score against 500 random probes
NRC3_wobSeed13_DR0_G21A_o1 (dsDNA) DNA 1: GCCGTCCAAGGTCAAGGTCAATGAAAGAGACTCGAAGCGATTGACAGCGTAGAATGAAGG DNA 2: CCTTCATTCTACGCTGTCAATCGCTTCGAGTCTCTTTCATTGACCTTGACCTTGGACGGC | 8.19 PBM z-score against 500 random probes
NRC3_wobSeed39_DR1_T8G_o1 (dsDNA) DNA 1: GCCGAACGAGGTCAAAGGACAGTGAAAGGCGACGTAGCGATTGACAGCGTAGAATGAAGG DNA 2: CCTTCATTCTACGCTGTCAATCGCTACGTCGCCTTTCACTGTCCTTTGACCTCGTTCGGC | 8.11 PBM z-score against 500 random probes
NRC3_wobSeed87_DR3_T8A_o1 (dsDNA) DNA 1: GCCGAACAAGGTCATCCAGGACAGTGAATACATTGAGCGATTGACAGCGTAGAATGAAGG DNA 2: CCTTCATTCTACGCTGTCAATCGCTCAATGTATTCACTGTCCTGGATGACCTTGTTCGGC | 8.1 PBM z-score against 500 random probes
NRC3_wobSeed140_DR5_T13C_o1 (dsDNA) DNA 1: GCAGAATGAGGTCATACGTAGATCAGGGAAGAAAGTGCGATTGACAGCGTAGAATGAAGG DNA 2: CCTTCATTCTACGCTGTCAATCGCACTTTCTTCCCTGATCTACGTATGACCTCATTCTGC | 8.1 PBM z-score against 500 random probes
NRC3_wobSeed116_DR4_T13C_o1 (dsDNA) DNA 1: GCAGAATGAGGTCACCAAAGATCAGGGAAACGCTTGGCGATTGACAGCGTAGAATGAAGG DNA 2: CCTTCATTCTACGCTGTCAATCGCCAAGCGTTTCCCTGATCTTTGGTGACCTCATTCTGC | 7.91 PBM z-score against 500 random probes
